Molecular target: Cladosporium fulvum LysM effector Ecp6 (extracellular protein 6), produced in Pichia pastoris (Cladosporium fulvum) (UniProt B3VBK9)
Assay: SEC

Q: With “Cladosporium fulvum LysM effector Ecp6 (extracellular protein 6), produced in Pichia pastoris (from UniProt B3VBK9) (natural protein)” as the substance, how does the stoichiometry N read?
A: Its stoichiometry N is 2.

— paper PMC3700227
